The record followed here is US20220372155A1 (LYVGEN BIOPHARMA, published 2022).

In the assay the target is T1, human CD40 expressed on CHO cells (human, UniProt P25942 21-277).
T1 construct: whole, on cells; also used for the reporter cells over-expressing human CD40; also called cellular CD40; CHO-CD40 cells
The assay can be described thus: FACS, CHO cells.

T1 sequence (P25942 21-277): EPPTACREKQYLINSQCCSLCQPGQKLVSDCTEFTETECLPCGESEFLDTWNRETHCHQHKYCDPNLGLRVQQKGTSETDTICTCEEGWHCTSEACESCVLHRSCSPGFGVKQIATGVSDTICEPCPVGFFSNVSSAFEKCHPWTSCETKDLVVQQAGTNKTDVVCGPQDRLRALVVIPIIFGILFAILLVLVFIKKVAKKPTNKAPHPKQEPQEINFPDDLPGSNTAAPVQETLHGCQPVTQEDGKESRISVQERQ

B1: Ly403 (bispecific antibody, human IgG1, kappa)
heavy: EVQLVESGGGVVQPGRSLRLSCSASGFDFTTYWMSWVRQAPGKGLEWIGEIHPDSSTINYAPSLKDRFTISRDNAKNTLFLQMDSLRPEDTGVYFCASLYFGFPWFAYWGQGTPVTVSSASTKGPSVFPLAPSSKSTSGGTAALGCLVKDYFPEPVTVSWNSGALTSGVHTFPAVLQSSGLYSLSSVVTVPSSSLGTQTYICNVNHKPSNTKVDKKVEPKSCDKTHTCPPCPAPELLGPSVFLFPPKPKDTLMISRTPEVTCVVVDVSHEDPEVKFNWYVDGVEVHNAKTKPREEQYNSTYRVVSVLTVLHQDWLNGKEYKCKVSNKALPAPIEKTISKAKGQPREPQVYTLPPSREEMTKNQVSLTCLVKGFYPSDIAVEWESNGQPENNYKTTPPVLDSDGSFFLYSKLTVDKSRWQQGNVFSCSVMHEALHNHYTQKSLSLSPGK
light: DIQLTQSPSSLSASVGDRVTITCKASQDVGTSVAWYQQKPGKAPKLLIYWTSTRHTGVPSRFSGSGSGTDFTFTISSLQPEDIATYYCQQYSLYRSFGQGTKVEIKRTVAAPSVFIFPPSDEQLKSGTASVVCLLNNFYPREAKVQWKVDNALQSGNSQESVTEQDSKDSTYSLSSTLTLSKADYEKHKVYACEVTHQGLSSPVTKSFNRGECGGGGSGGGGSGGGGSGGGGSDIQMTQSPSSLSASVGDRVTITCKASQNIYIYLNWYQQKPGKAPKLLIYNTNNLQTGVPSRFSGSGSGTDFTLTISSLQPEDFATYYCLQHSSRRTFGGGTKVEIKGGGGSGGGGSGGGGSGGGGSQVQLVESGGGLVQPGGSLKLSCATSGFNFNDYFMNWVRQASGKGLEWVGQIRNKNYNYATYYTESLEGRVTISRDDSKNTAYLQMNSLKTEDTAVYYCTSYYYDGFADYFDYWGQGTTVTVSS
notes: Ly311 HC (IgG1 mutated Fc) + Ly311 LC-TM740 scFv VL-VH
Regarding B1, the binding result is recorded as “binds”.

B2: Ly404 (bispecific antibody, human IgG1, kappa)
heavy: EVQLVESGGGVVQPGRSLRLSCSASGFDFTTYWMSWVRQAPGKGLEWIGEIHPDSSTINYAPSLKDRFTISRDNAKNTLFLQMDSLRPEDTGVYFCASLYFGFPWFAYWGQGTPVTVSSASTKGPSVFPLAPSSKSTSGGTAALGCLVKDYFPEPVTVSWNSGALTSGVHTFPAVLQSSGLYSLSSVVTVPSSSLGTQTYICNVNHKPSNTKVDKKVEPKSCDKTHTCPPCPAPELLGPSVFLFPPKPKDTLMISRTPEVTCVVVDVSHEDPEVKFNWYVDGVEVHNAKTKPREEQYNSTYRVVSVLTVLHQDWLNGKEYKCKVSNKALPAPIEKTISKAKGQPREPQVYTLPPSREEMTKNQVSLTCLVKGFYPSDIAVEWESNGQPENNYKTTPPVLDSDGSFFLYSKLTVDKSRWQQGNVFSCSVMHEALHNHYTQKSLSLSPGK
light: DIQLTQSPSSLSASVGDRVTITCKASQDVGTSVAWYQQKPGKAPKLLIYWTSTRHTGVPSRFSGSGSGTDFTFTISSLQPEDIATYYCQQYSLYRSFGQGTKVEIKRTVAAPSVFIFPPSDEQLKSGTASVVCLLNNFYPREAKVQWKVDNALQSGNSQESVTEQDSKDSTYSLSSTLTLSKADYEKHKVYACEVTHQGLSSPVTKSFNRGECGGGGSGGGGSGGGGSGGGGSQVQLVESGGGLVQPGGSLKLSCATSGFNFNDYFMNWVRQASGKGLEWVGQIRNKNYNYATYYTESLEGRVTISRDDSKNTAYLQMNSLKTEDTAVYYCTSYYYDGFADYFDYWGQGTTVTVSSGGGGSGGGGSGGGGSGGGGSDIQMTQSPSSLSASVGDRVTITCKASQNIYIYLNWYQQKPGKAPKLLIYNTNNLQTGVPSRFSGSGSGTDFTLTISSLQPEDFATYYCLQHSSRRTFGGGTKVEIK
notes: Ly311 HC (IgG1 mutated Fc) + Ly311 LC-TM740 scFv VH-VL
In the case of B2, the binding result is recorded as “binds”.

B3: Ly402 (bispecific antibody, human IgG1, kappa)
heavy: EVQLVESGGGVVQPGRSLRLSCSASGFDFTTYWMSWVRQAPGKGLEWIGEIHPDSSTINYAPSLKDRFTISRDNAKNTLFLQMDSLRPEDTGVYFCASLYFGFPWFAYWGQGTPVTVSSASTKGPSVFPLAPSSKSTSGGTAALGCLVKDYFPEPVTVSWNSGALTSGVHTFPAVLQSSGLYSLSSVVTVPSSSLGTQTYICNVNHKPSNTKVDKKVEPKSCDKTHTCPPCPAPELLGPSVFLFPPKPKDTLMISRTPEVTCVVVDVSHEDPEVKFNWYVDGVEVHNAKTKPREEQYNSTYRVVSVLTVLHQDWLNGKEYKCKVSNKALPAPIEKTISKAKGQPREPQVYTLPPSREEMTKNQVSLTCLVKGFYPSDIAVEWESNGQPENNYKTTPPVLDSDGSFFLYSKLTVDKSRWQQGNVFSCSVMHEALHNHYTQKSLSLSPGGGGGSGGGGSGGGGSGGGGSQVQLVESGGGLVQPGGSLKLSCATSGFNFNDYFMNWVRQASGKGLEWVGQIRNKNYNYATYYTESLEGRVTISRDDSKNTAYLQMNSLKTEDTAVYYCTSYYYDGFADYFDYWGQGTTVTVSSGGGGSGGGGSGGGGSGGGGSDIQMTQSPSSLSASVGDRVTITCKASQNIYIYLNWYQQKPGKAPKLLIYNTNNLQTGVPSRFSGSGSGTDFTLTISSLQPEDFATYYCLQHSSRRTFGGGTKVEIK
light: DIQLTQSPSSLSASVGDRVTITCKASQDVGTSVAWYQQKPGKAPKLLIYWTSTRHTGVPSRFSGSGSGTDFTFTISSLQPEDIATYYCQQYSLYRSFGQGTKVEIKRTVAAPSVFIFPPSDEQLKSGTASVVCLLNNFYPREAKVQWKVDNALQSGNSQESVTEQDSKDSTYSLSSTLTLSKADYEKHKVYACEVTHQGLSSPVTKSFNRGEC
notes: Ly311 HC (IgG1 mutated Fc)-TM740 scFv VH-VL + Ly311 LC
Turning to B3, the binding result is on record as “binds”.

B4: Ly407 (bispecific antibody, human IgG1, kappa)
heavy: EVQLVESGGGLVQPGGSLRLSCAASGFNIKDTYMHWVRQAPGKGLEWVARIDPANGNSKYADSVKGRFTISADTSKNTAYLQMNSLRAEDTAVYYCAPFGYYVSDYAMAYWGQGTLVTVSSASTKGPSVFPLAPSSKSTSGGTAALGCLVKDYFPEPVTVSWNSGALTSGVHTFPAVLQSSGLYSLSSVVTVPSSSLGTQTYICNVNHKPSNTKVDKKVEPKSCDKTHTCPPCPAPELLGPSVFLFPPKPKDTLMISRTPEVTCVVVDVSHEDPEVKFNWYVDGVEVHNAKTKPREEQYNSTYRVVSVLTVLHQDWLNGKEYKCKVSNKALPAPIEKTISKAKGQPREPQVYTLPPSREEMTKNQVSLTCLVKGFYPSDIAVEWESNGQPENNYKTTPPVLDSDGSFFLYSKLTVDKSRWQQGNVFSCSVMHEALHNHYTQKSLSLSPGK
light: DIQLTQSPSSLSASVGDRVTITCRAGESVDIFGVGFLHWYQQKPGKAPKLLIYRASNLESGVPSRFSGSGSRTDFTLTISSLQPEDFATYYCQQTNEDPYTFGQGTKVEIKRTVAAPSVFIFPPSDEQLKSGTASVVCLLNNFYPREAKVQWKVDNALQSGNSQESVTEQDSKDSTYSLSSTLTLSKADYEKHKVYACEVTHQGLSSPVTKSFNRGECGGGGSGGGGSGGGGSGGGGSDIQMTQSPSSLSASVGDRVTITCKASQNIYIYLNWYQQKPGKAPKLLIYNTNNLQTGVPSRFSGSGSGTDFTLTISSLQPEDFATYYCLQHSSRRTFGGGTKVEIKGGGGSGGGGSGGGGSGGGGSQVQLVESGGGLVQPGGSLKLSCATSGFNFNDYFMNWVRQASGKGLEWVGQIRNKNYNYATYYTESLEGRVTISRDDSKNTAYLQMNSLKTEDTAVYYCTSYYYDGFADYFDYWGQGTTVTVSS
notes: Ly312 HC (IgG1 mutated Fc) + Ly312 LC-TM740 scFv VL-VH
On to B4, for which the binding result was “binds”.

B5: Ly405 (bispecific antibody, human IgG1, kappa)
heavy: EVQLVESGGGLVQPGGSLRLSCAASGFNIKDTYMHWVRQAPGKGLEWVARIDPANGNSKYADSVKGRFTISADTSKNTAYLQMNSLRAEDTAVYYCAPFGYYVSDYAMAYWGQGTLVTVSSASTKGPSVFPLAPSSKSTSGGTAALGCLVKDYFPEPVTVSWNSGALTSGVHTFPAVLQSSGLYSLSSVVTVPSSSLGTQTYICNVNHKPSNTKVDKKVEPKSCDKTHTCPPCPAPELLGPSVFLFPPKPKDTLMISRTPEVTCVVVDVSHEDPEVKFNWYVDGVEVHNAKTKPREEQYNSTYRVVSVLTVLHQDWLNGKEYKCKVSNKALPAPIEKTISKAKGQPREPQVYTLPPSREEMTKNQVSLTCLVKGFYPSDIAVEWESNGQPENNYKTTPPVLDSDGSFFLYSKLTVDKSRWQQGNVFSCSVMHEALHNHYTQKSLSLSPGGGGGSGGGGSGGGGSGGGGSDIQMTQSPSSLSASVGDRVTITCKASQNIYIYLNWYQQKPGKAPKLLIYNTNNLQTGVPSRFSGSGSGTDFTLTISSLQPEDFATYYCLQHSSRRTFGGGTKVEIKGGGGSGGGGSGGGGSGGGGSQVQLVESGGGLVQPGGSLKLSCATSGFNFNDYFMNWVRQASGKGLEWVGQIRNKNYNYATYYTESLEGRVTISRDDSKNTAYLQMNSLKTEDTAVYYCTSYYYDGFADYFDYWGQGTTVTVSS
light: DIQLTQSPSSLSASVGDRVTITCRAGESVDIFGVGFLHWYQQKPGKAPKLLIYRASNLESGVPSRFSGSGSRTDFTLTISSLQPEDFATYYCQQTNEDPYTFGQGTKVEIKRTVAAPSVFIFPPSDEQLKSGTASVVCLLNNFYPREAKVQWKVDNALQSGNSQESVTEQDSKDSTYSLSSTLTLSKADYEKHKVYACEVTHQGLSSPVTKSFNRGEC
notes: Ly312 HC (IgG1 mutated Fc)-TM740 scFv VL-VH + Ly312 LC
For the molecule B5, the binding result was “binds”.

B6: Ly406 (bispecific antibody, human IgG1, kappa)
heavy: EVQLVESGGGLVQPGGSLRLSCAASGFNIKDTYMHWVRQAPGKGLEWVARIDPANGNSKYADSVKGRFTISADTSKNTAYLQMNSLRAEDTAVYYCAPFGYYVSDYAMAYWGQGTLVTVSSASTKGPSVFPLAPSSKSTSGGTAALGCLVKDYFPEPVTVSWNSGALTSGVHTFPAVLQSSGLYSLSSVVTVPSSSLGTQTYICNVNHKPSNTKVDKKVEPKSCDKTHTCPPCPAPELLGPSVFLFPPKPKDTLMISRTPEVTCVVVDVSHEDPEVKFNWYVDGVEVHNAKTKPREEQYNSTYRVVSVLTVLHQDWLNGKEYKCKVSNKALPAPIEKTISKAKGQPREPQVYTLPPSREEMTKNQVSLTCLVKGFYPSDIAVEWESNGQPENNYKTTPPVLDSDGSFFLYSKLTVDKSRWQQGNVFSCSVMHEALHNHYTQKSLSLSPGGGGGSGGGGSGGGGSGGGGSQVQLVESGGGLVQPGGSLKLSCATSGFNFNDYFMNWVRQASGKGLEWVGQIRNKNYNYATYYTESLEGRVTISRDDSKNTAYLQMNSLKTEDTAVYYCTSYYYDGFADYFDYWGQGTTVTVSSGGGGSGGGGSGGGGSGGGGSDIQMTQSPSSLSASVGDRVTITCKASQNIYIYLNWYQQKPGKAPKLLIYNTNNLQTGVPSRFSGSGSGTDFTLTISSLQPEDFATYYCLQHSSRRTFGGGTKVEIK
light: DIQLTQSPSSLSASVGDRVTITCRAGESVDIFGVGFLHWYQQKPGKAPKLLIYRASNLESGVPSRFSGSGSRTDFTLTISSLQPEDFATYYCQQTNEDPYTFGQGTKVEIKRTVAAPSVFIFPPSDEQLKSGTASVVCLLNNFYPREAKVQWKVDNALQSGNSQESVTEQDSKDSTYSLSSTLTLSKADYEKHKVYACEVTHQGLSSPVTKSFNRGEC
notes: Ly312 HC (IgG1 mutated Fc)-TM740 scFv VH-VL + Ly312 LC
Take B6: the binding result is “binds”.
